Experimental data as given in patent US8541670B2, “Compositions and methods for inhibiting tumor cell growth” (priority 2007, dated 2013).
Where no end group is shown, it is not given here. red fluorescent dye = not defined here

Columns and labels:
AKT = assay: Western blot of AKT substrate phosphorylation in N2a cells; type: cell-based; conditions: different doses
Procedure: AKT affects a network that positively regulates G1/S cell cycle progression through several mechanisms that involve the expression and subcellular localization of the CDK inhibitor p27^Kip1 (Blain and Massague (2002) Nat. Med. 8:1076-1078; Liang, et al. (2002) supra; Shin, et al. (2002) supra; Viglietto, et al. (2002) supra). Based on these studies, the effect of ZaTa peptide on cell proliferation was assessed. […] Capturing live images of cultured N2a cells in the presence of different concentrations of the ZaTa peptide confirmed an obvious reduction in the number of dividing cells.
N2a cells were cultured in Dulbecco's Modified Eagle's Medium (DMEM) and OPTI-MEM® media (50% of each; GIBCO-BRL, Gaithersberg, Md.) supplemented with 5% fetal bovine serum (FBS; SIGMA, St. Louis, Mo.), penicillin-streptomycin and L-Glutamine (GIBCO-BRL). […] Protein concentration was measured using a commercially available protein assay (BIO-RAD, […].) protein assay and spectrometry at 595 Å. […] The membrane was probed with primary and secondary antibodies and signals were detected by chemiluminescence followed by autoradiography.

PAK3 = PAK3 (Homo sapiens, UniProt O75914); assay: Cell-based kinase assay, phosphorylation of intracellular substrate (Ser-338 cRaf)
Procedure: (§1) As a specific substrate, the phosphorylation level of GSK-3[…] at Ser-9 was also evaluated. […] The decrease was specific to the AKT phosphorylation site on GSK-3[…] at Ser-9, since a change in the phosphorylation level of GSK-3[…] at Tyr-216 or GSK-3[…] at Tyr-279 was not observed. Moreover, the in vivo reduction of the phosphorylation of AKT substrates was more obvious at the injection site, since a significant change in the phosphorylation of AKT substrates in the frontal cortex or cerebellum between the two hemispheres was not observed. […] To test the specificity/selectivity of ZaTa as the inhibitor of AKT1 versus the other major kinases, a series of in vitro kinase assays was performed at IC50 for AKT1 and at ten times higher concentrations. […]
(§2) Phosphorylation sites for kinases analyzed herein included Ser-235/236 S6 (a substrate for p70S6K), Tyr-207 CRKL (a substrate for Abl; Zipfel, et al. (2004) supra), Ser-241 PDK1 (a substrate for PI3K), Tyr-1022/1023 JAK1 (a substrate for JAK3; Wang, et al. (2003) supra), Ser-421 Huntingtin (a substrate for SGK; Rangone, et al. (2004) supra), Tyr-783 PLC (a substrate for TrkB; Middlemas, et al. (1994) supra), and Ser-338 cRaf (a substrate for PAK3; King, et al. (1998) supra).

Abl = Abl (Homo sapiens, UniProt P00519); assay: Cell-based kinase assay, phosphorylation of intracellular substrate (Tyr-207 CRKL)
Procedure: as §1, §2

Abl, sequence (P00519 whole entry, species assumed): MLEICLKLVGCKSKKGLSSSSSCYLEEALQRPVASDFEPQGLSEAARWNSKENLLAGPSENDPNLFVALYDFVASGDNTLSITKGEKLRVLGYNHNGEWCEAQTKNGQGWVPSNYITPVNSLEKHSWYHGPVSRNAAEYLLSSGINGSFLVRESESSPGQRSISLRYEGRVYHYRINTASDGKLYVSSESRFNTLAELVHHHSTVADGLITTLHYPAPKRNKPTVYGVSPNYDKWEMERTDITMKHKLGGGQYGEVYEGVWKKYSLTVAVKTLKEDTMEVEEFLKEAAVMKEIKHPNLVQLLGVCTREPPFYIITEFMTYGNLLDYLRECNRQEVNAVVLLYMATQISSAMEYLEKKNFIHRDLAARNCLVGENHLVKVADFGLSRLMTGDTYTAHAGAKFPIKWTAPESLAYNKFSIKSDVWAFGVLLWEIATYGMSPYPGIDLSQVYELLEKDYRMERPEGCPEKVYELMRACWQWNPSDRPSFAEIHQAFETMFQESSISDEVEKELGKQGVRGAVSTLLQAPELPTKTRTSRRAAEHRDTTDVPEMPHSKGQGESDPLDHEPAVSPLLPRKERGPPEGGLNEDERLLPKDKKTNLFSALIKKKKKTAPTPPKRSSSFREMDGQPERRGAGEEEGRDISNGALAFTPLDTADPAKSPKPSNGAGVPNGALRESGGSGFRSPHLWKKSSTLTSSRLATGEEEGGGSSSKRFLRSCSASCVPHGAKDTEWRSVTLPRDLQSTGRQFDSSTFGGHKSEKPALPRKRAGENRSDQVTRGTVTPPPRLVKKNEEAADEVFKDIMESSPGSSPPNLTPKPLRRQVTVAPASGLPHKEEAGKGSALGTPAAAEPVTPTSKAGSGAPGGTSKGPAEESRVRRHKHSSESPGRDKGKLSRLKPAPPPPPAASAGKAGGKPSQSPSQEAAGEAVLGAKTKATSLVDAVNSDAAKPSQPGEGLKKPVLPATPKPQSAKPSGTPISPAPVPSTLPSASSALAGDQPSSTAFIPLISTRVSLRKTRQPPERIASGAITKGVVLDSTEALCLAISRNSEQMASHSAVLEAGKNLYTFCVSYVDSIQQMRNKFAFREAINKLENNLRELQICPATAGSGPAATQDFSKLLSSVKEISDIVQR
PAK3, sequence (O75914 whole entry, species assumed): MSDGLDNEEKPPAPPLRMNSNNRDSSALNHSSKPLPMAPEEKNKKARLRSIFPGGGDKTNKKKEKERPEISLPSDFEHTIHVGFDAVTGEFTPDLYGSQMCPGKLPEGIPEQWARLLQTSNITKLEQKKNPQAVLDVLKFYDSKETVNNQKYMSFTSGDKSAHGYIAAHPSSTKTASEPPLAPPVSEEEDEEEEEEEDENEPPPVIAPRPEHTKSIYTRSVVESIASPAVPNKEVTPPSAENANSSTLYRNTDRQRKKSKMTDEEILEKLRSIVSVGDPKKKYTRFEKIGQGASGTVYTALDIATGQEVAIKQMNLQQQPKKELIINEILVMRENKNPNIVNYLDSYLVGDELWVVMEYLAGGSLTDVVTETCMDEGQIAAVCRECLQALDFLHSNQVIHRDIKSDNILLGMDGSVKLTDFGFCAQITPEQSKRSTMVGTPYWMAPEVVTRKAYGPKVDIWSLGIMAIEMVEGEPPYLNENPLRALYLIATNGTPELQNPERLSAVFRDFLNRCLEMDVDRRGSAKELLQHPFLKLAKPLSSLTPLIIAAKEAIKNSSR

AKRVKGRTWTLCGTPEY [ZaTa]
phosphorylation level of AKT substrates in N2a cells (AKT): concomitant decrease

labeled ZaTa: ZaTa peptide labeled with a red fluorescent dye at its N-terminus ({red fluorescent dye}-AKRVKGRTWTLCGTPEY; reading uncertain)
inhibition of PAK3 in cells (PAK3): did not cause inhibition | inhibition of Abl in cells (Abl): did not cause inhibition
